According to the nanobody polyreactivity screen of Harvey et al. (2022):

Test: yeast display, Sf9 membrane polyspecificity reagent, FACS + sequencing; frameworks hold sequencing errors
Outline: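 Sorting gates, low and high (top ~1%), were placed on anti-HA fluorescence to track expression and on streptavidin fluorescence to track reagent binding. A clone's polyreactivity label is taken from the gate it came out of. The reagent was 10% biotinylated, detergent-solubilized Sf9 membrane, applied for 1 hour at 4 °C to galactose-induced yeast display cells.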

Sequence | polyreactivity (PSR sort gate)
QVQLVESGGGLVQAGGSLRLSCAASGSIFHNYDMGLYRQAPGKEREMVADISRGGDTNYADSVKGRFTISRDNAKNTVYLQLNSLKPEDTAVYYCNATYWILDSPWWRETFAYWGQGTQVTVSS | low polyreactivity
QVQLVESGGCLVQAGGSLRLSCAASGRIFLRYAMGWYRQAPGKEREFVADITYSGGSTYYADSVKGRFTISRDNAKNTVYLQMNSLKPEDTAVYYCAAGWVRPWATYKLDYWGQGTQVTVTS | high polyreactivity
QVQLVESGGGLVQAGGSLRLSCAASGSTFTINAKGWYRQATGKETELVAAITDSAGNTYYADSVKGRFTISRDNAKNTVYLQMNSLKPEDTAVYYCAAAWPSTGLLYVLGYSGYGYWGQGTQVTVSS | low polyreactivity
QVQLVESVGGLVQAGGSLRLSCAASGRTFQYNAMGWYRPAPGKERELVAAISSSGGSTYYADSVKGRFTISRDNAKNTVYLQMNSLKPEDTAVYYCNAYSQSWNFYGDGDYWGQGTQVTVSS | low polyreactivity
QVQLVESGGGLVQAGGSLRLSCAASGRIFVNNAMGWYRPAPGKERELVAAISKRGGSTYYADSLKGRFTISRDNAMNTVYLHMNSLKPEDTAVYYCAASGYRYPIDGDYWGQGTEVTVSS | high polyreactivity
QVQLVESGGGLVQAGGSLRLSCAASGSTFFLNAMGWYRQAPGKERELVAAISYSDSGTNYADSVKGRFTISRDNAKNTVYLQMNSLKPEDTAVYYCATAVRPWYVTSGNYWGQGTQVTVSS | low polyreactivity
QVQLVESGGGLVQAGGSLRLSCAASGRISGSYVMGWYRQAPGKESELVAGISGRGGSTYYADSVKGRFTISRDNAKNTVYLQMYSLKPEDTAVYYCAVVDRTSKGNSYYWGQGTQVTVSS | high polyreactivity
QVQLVESGGGLVQAGGSLRLSCAASGGIFGGYAMGWYRQAPGKDREFVAAISRRGGSTYYADSVKGRFTISRDNAKNTVYLQMNSLKPEDTAVYYCAADRYPSLYDYWGQGTQVTVSS | high polyreactivity
QVQLVESGGGLVQAGGSLRLSCAASGSIFNGNARGWYRQAPGKERELVAAITRRGGRTYYADSVKGRFTISRDNEKNTVYLQMNSLQPEDTAFYYCATPVDYKTGYYYWVQGTQVTVSS | high polyreactivity
QVQLVESGGGLVQAGGSLRLSCAASGSIFWTNAMGWYRQAPGKERELVAAITSGGNTNYADSVKGRFTISRDNAKNTVYLQMNSLKPEDTAVYYCAARYGRGWRRTYTQYDSWGQGTQVTVSS | low polyreactivity
QVQLVESGGGLVQAGGSLRLSCAASGRIFKIYAMGWYRQAPGKERELVASISWSGGRTYYADSVKGRFTISRDNAKNTVYLQMNSLKPEDTAVYYCAATFSYSSYIYDYWGQGTQVTVSS | high polyreactivity
QVQLVESGGGLVQAGGSLRLSCAASGSIFSANVMGWYRQAPGTERELVAAIRRGGTTYYADSVKGRFTISRDNAKNTVYLQMNSLKPEDTAVYYCATDGIFGSYLRFEVAYDYWGQGTQVTVSS | low polyreactivity
QVQLVESGGGLVQAGGSLRLSCAASGIIFYKFAMGWYRQAPGKERELVASISRRGGNTYYADSVKGRCTISRDNAKNTVYLQMNSLKPEDTAVYDSAAPKRSNEPYDYWGQGTQVTVSS | high polyreactivity
QVQLVESGGGLVQAGGSLRLSCAASGSTFVSSALGWSSQAPGKARELVARIRRSGGSTYYADSVKGRFTISRDNAKNTVYLQMNSLKPEDTAVYDCAAGYSRGQYRYNYWGQGTQVTVSS | high polyreactivity
QVQLVESGGGLVQAGGSLRLSCAASGSIFLSNAMGWSRQAPGKERELVADIDWTGGDTYYADSVKGRFTISRDNAKNTVYLQMNSLKPEDTAVYYCAADYGYRNLLTEYGYWGQGTQVTVSS | low polyreactivity
QVQLVESGGGLVQAGGSLRLSCAASGYIFDYNAMGWYRQAPGKERELVAAITFRDGSTYADSVKGRFTISRDNAKNTVYLQMNSLKPEDTAVYYCNRRSQVHSHSKHDYWGQGTLVTVSS | low polyreactivity
QVQLVESGGGLVQAGGSLRLSCAASGFNFRLYAMGWYRQAPGKERELVATITQRGGRTYYADSVKGRFTISLDNAHNTVYLQMNSLKPEDTAVYYCAATWTVTTGTKFDYWGQGTQVTVAS | high polyreactivity
QVQLVESGGGLVQAGGSLRLSCAASGLTFVFYAMGWYRQAPGKERELVAAISSSGGSTNYADSVKGRFTISRDNAKNTVYLQMNSLKPEDTAVYYCNAALLGKQYYSNPNYDYWGQGTQVTVSS | high polyreactivity
QVQLVESGGGRVQAGGSLRLSCAASGITFDANAMGWDRQAPGKERELVARISSGGSTNYADSVKGRFTISRDNAKNTVYLQMNSLKPEDTAVYYCAKSYQYGFDYWGQGTQVNVSS | low polyreactivity
QVQHVESGGGLVQAGGSLRLSCAASGYTFRSNTMGWYRQAPGKERELVAAISGRGSSTYYADSVKGRFTISRDNAKNTVYLQMNSLKPEDTAVYYCAAQSKYYQYYSWGQGTQVTVSS | high polyreactivity
QVQLVESGGGLVQAGGSLRLSCAASGRTFVRYAMGWYRQAPGKERELVARITSRGTSTYYADSVKGRFTISRDNAKNTVYLQMNSLKPEDTAVYYCNKVRTFRDKSRYDYWGQGTQVTVSS | low polyreactivity
QVQLVESGGGLVQAGGSLRLSCAASGSILYRYTMGWDRQAPGKERELVAAISFSGGRTYYADSVKGRFTISRDNAKNTVYLQMNSLKPEDTAVYYCNAGTSGKYGYWGQGTQVTVSS | high polyreactivity

Sequence | polyreactivity (PSR sort gate)
QVQLVESGGGLVQAGGSLRLSCAASGRTFGINAMRWSRQATGKERELVAAITGRSGRTYYADSVKGRFTISRDNAKYTVYLQMNSLQPEDTAVYYCAARWPVYSRRYGYWGQGTQVTVSS | high polyreactivity
QVQLVESGGGLVQAGGSLRLSCAASGRIFGFYAMGLYRQAPGKERELVARITLSGGRTYYADSVKGRFTISRDNAKNTVYLQMNSLKPEDTAVYYCAADSIGRLWGYGYWGQGTQVTVSS | high polyreactivity
QVHLVESGGGLVQAGGSLRLSCAASGSIFYGNAMGWDRQATGKERELVAGISWYGGSTYYADSVKGRFTISRDNAKNTVYLQMNSLKPEDTAVYYCATVADEPRSYSGYEEYDYWGQGTQVTVSS | low polyreactivity
QVQLVESGGGLVQAGGSLRLSCAASGRIFGRNAMGWYRKAPGKERELVAAISWRGGNTYYADSVKGRFTISRDNAKNTVYLQMNSLKPEDTAVYYCNTVQYRNEMGYWGQGTQVTVSS | high polyreactivity
QVQLVESGGGLVQAGGSLRLSCAASGYISYVNPMGWYRQAPGKERELVAAISGRGGSTYYADSVKGRFTISRDNAKNTVYLQMYSLKPEDTAVYYCAADLYYSYYWGQGTQVTVSS | low polyreactivity
QVQLVESGGGLDQAGGSLRLSCAASGRIFYQNAMGLSRQAPGKERELVAAITSSGVSTYYADSVKGRFTISRDNAKNTVYLQMNSLKPEDTAVYYCAAYRVGYGGYSYYYWGQGTQVTVSS | high polyreactivity
QVQLVESGGGLVQAGGSLRLSCAASGSSFYVNAMGWYRQAPGKEREFVAAITWNSGSTYYADSVKGRFTISRDNEKNTVYLQMNSLKPEDTAVYYCAAVLSGRVYGYDYWGQGTQVTVSS | low polyreactivity
QVQLVESGGGLVQAGGSLRLSCAASGRTFDPYAMGWYRQAPGKERELVAAITSGDDTYYADSVKGRFTISRDNAKNTVYLQMNSLKPEDTAVYYCAADSFTPDYYSHDYWGQGTQVTVSS | low polyreactivity
QVQLVESGGGLVQAGGSLRLSCAASGFTFQENAMGWYRQAPGKERELVAAISYGGGSTYYADSVKGRFTISRDNAKNTVYLQMNSLKPEDTAVYYCAADGGSAYAWYFAELYGYWGQGTQVTVSS | low polyreactivity
QVQLVESGGGLVQAGGSLRLSCAASGITFYKYTMGWYRQAPGKERELVAAISVRGGRTYYADSVKGRFTISRDNAKNTVYLQMNSLKPEDTAVYYCNRVPKDAYDYWGQGTQVTVSS | high polyreactivity
QVQLVESGGGLVQAGGSLRLSCAASGLFFFYYAMGWYRQAPGKERELDAAIRTNYADSVKGRFTISRDNAKNTVYLQMNSLKPEDTAVYYCAAESSQTPTSAFDYWGQGTQVTVSS | low polyreactivity
QVQLVESGGGLVQSGGSLRLSCAASGSTSTSYVMGWYRQAPGKERELVAVITLRSGVTYYADSVKARFTISRDNPKYTVYLQMNSLKAEDTAVYYCNAATVVYTRVWRGYWGQGTHVTVSS | low polyreactivity
QVQLVESGGGLVQAGGSLRLSGAASGRIFDIYAMGWYRQAPGKERELVAGITSVGSTNYADSVKGRFTISRDYAKNTVYLQMNSLKPEDTAVYYCAADTSVHSEVDYGGQGTQVTVSS | low polyreactivity
QVQLVESGGGLVQAGGSLRLSCAASGSIFLRNAMGWYRQAPGKERELVAAITSNGGRTYYADSVKGRFTISRDNAKNTVYLQMNSLKPEDTAVYYCARVTRLGGGDYDYWGQGTQVTVSS | high polyreactivity
QVQLVESGGGLVQAGGSLRLSCAASGGTFTKNPMGWYRQAPGKERELVATITFSDGSTYYADSVKGRFTISRDNAKNTVYLQMNSLKPEDTAVYYCNARRSYFLRYGVNYWGQGTQVTVSS | low polyreactivity
QVQLVESGGGLVQEGGSLRLSCAASGSIFRVNTMGWYRQAPGKERELVATISSGARTNYADSVKGRFTISRDNAKNTVYLQMNSLKPEDTAVYYCAADRSWGYPRWFTSRYDYWGQGTQVTVSS | high polyreactivity
QGQHVESGGGLVQAGGSLRLSCAASGSIFAAYAMGWYRQATGKERELVAPIDRGGSTDYADSVKGRFTISRDNAKNTVFLPMNSLKPEDTAVYYCDKGYDYYVRRYYYWGQGTQVTGSS | high polyreactivity
QVQLVESGGGLVKAGGSLRLSCAASGSIFRYYTMGWYRQAPGKEWELVAAINGSGGSTYYADSVKGRFTISRDTAKNTVYLQMNSLKPEDTAVYYCNRVTKEYGLRQYYYWGQGTQVTVSS | low polyreactivity
QVQLVESGVGLVQAGGSLRISCAASGSTFAAKSMGWYRQAPGKEREWVAVIRRGGSTTYADSVKGRFTISRDNAKNTVYLQMNSLKPEATAVYYCAASLYGKGDYWGQGTQVTVSS | high polyreactivity
QVQLVESGGGLVQAGGSLRLSCAASGFTFYAYAMGWYRQAPGKERELVAVISWSGGSTYYADSVKGRFTISRDNAKNTVYLQMNSLKPEDTAVYYCAADSLESYPDYEYDYWGQGTQVTVSS | low polyreactivity
QVQLVESGGGLVQAGGSLRLSCAASGRTFGYNAMGWYRQAAGKERELVAAISSSGGSTYYADSVKGRFTISRDNAKNTVYLQMNSLKPEDTAVYYCATQGYSWAHGSDYWGQGTQVTVSS | low polyreactivity
